These results are taken from paper PMC12615798.

This assay concerns the target cystatin C^EX (human) (UniProt P01034). The assay can be described thus: ELISA; two-fold serial dilutions of cystatin C^EX coated on the plate overnight at 4 °C, 10 μg/mL ECD-Fc added for 2 h at room temperature, anti-human-IgG-Fc-HRP. A general note: In an ELISA, binding on a coated surface is turned into a signal by an enzyme label.
UniProt P01034, sequence (P01034 27-146): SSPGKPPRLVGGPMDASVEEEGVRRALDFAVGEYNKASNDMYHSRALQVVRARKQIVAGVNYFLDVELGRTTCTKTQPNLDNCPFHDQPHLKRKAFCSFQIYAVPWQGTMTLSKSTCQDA

For “LILRB2 ECD-Fc (commercial) (from UniProt Q8N423 22-460) (Fc fusion)”, the EC50 (as a rule, the concentration needed to bring the measured effect to its halfway point) was 0.0228 µM.

In the case of “LILRB5 ECD-Fc (commercial) (from UniProt O75023 24-458) (Fc fusion)”, the EC50 was determined as 1.18 µM.
